Key:
rat NPR1-ANP complex [1] = molecular target: T1, rat NPR1-ANP complex (rat); experiment: ELISA, IgG titrated on the antigen with 250 fold molar excess of ANP
T1 construct: Rat receptor antigen measured in the presence of ANP; also called rNPR1 + ANP; rNPR1-ANP-complex

human NPR1-ANP complex [2] = molecular target: T2, human NPR1-ANP complex (human, UniProt P01160 124-151, limits assumed); experiment: ELISA, IgG titrated on the antigen with 250 fold molar excess of ANP [cont.]
T2 construct: Receptor antigen measured in the presence of ANP; also called hNPR1 + ANP; hNPR1-ANP-complex
T2 sequence: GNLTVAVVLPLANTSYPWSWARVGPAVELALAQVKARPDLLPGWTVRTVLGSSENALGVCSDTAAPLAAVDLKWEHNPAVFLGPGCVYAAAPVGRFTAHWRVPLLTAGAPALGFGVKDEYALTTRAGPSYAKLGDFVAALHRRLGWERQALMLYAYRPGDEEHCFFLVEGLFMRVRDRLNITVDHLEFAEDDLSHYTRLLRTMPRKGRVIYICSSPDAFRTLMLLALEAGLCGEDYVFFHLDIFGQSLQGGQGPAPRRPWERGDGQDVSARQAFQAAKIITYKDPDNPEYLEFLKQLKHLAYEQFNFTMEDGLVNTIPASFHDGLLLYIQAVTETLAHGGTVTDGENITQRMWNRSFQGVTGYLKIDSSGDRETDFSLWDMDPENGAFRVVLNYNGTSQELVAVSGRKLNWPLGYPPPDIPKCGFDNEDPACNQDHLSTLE
T2 sequence (peptide): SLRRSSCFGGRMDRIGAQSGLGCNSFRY

[3] = molecular target: T3, human NPR1 expressed on CHO-K1 cells in the presence of ANP (human, UniProt P01160 124-151); experiment: flow cytometry, 1 uM IgG, +100 nM ANP
T3 construct: also called hNPR1 CHO K1 + 100 nM ANP
T3 sequence: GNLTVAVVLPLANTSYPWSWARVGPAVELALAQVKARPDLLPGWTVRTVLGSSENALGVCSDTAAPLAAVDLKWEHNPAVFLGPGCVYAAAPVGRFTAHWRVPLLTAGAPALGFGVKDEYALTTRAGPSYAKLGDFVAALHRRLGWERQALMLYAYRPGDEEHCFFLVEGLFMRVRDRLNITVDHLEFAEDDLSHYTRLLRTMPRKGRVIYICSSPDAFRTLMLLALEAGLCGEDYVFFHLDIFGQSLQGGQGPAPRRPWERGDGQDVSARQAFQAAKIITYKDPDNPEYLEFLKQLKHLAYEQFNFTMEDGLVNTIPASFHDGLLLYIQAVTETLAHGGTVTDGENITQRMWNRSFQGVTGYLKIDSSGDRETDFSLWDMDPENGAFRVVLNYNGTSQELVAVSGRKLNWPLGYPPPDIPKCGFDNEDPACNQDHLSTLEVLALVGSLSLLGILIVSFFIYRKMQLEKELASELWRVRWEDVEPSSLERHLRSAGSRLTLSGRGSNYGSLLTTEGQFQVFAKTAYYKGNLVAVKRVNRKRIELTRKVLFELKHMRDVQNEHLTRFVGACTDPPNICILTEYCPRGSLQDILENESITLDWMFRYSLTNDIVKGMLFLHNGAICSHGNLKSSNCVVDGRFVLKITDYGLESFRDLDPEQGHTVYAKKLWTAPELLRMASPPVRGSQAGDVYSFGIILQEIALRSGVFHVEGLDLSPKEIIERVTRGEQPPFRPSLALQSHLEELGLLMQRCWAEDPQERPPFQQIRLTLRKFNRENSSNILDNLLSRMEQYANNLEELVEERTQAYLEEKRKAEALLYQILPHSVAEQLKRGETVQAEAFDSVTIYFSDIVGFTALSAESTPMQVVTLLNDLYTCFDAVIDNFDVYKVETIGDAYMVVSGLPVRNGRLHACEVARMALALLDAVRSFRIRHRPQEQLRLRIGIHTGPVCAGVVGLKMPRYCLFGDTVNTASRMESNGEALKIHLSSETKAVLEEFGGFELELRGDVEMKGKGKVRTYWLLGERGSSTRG
T3 sequence (peptide): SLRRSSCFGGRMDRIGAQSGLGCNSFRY

rat NPR1-ANP complex [4] = molecular target: T1, rat NPR1-ANP complex; experiment: ELISA, 1 uM IgG, +100 nM ANP
human NPR1-ANP complex [5] = molecular target: T2, human NPR1-ANP complex; experiment: ELISA, 1 uM IgG, +100 nM ANP
[6] = molecular target: T4, human NPR1 expressed on CHO-K1 cells (human, UniProt P16066 33-1061); experiment: cell-based or functional assay
T4 sequence: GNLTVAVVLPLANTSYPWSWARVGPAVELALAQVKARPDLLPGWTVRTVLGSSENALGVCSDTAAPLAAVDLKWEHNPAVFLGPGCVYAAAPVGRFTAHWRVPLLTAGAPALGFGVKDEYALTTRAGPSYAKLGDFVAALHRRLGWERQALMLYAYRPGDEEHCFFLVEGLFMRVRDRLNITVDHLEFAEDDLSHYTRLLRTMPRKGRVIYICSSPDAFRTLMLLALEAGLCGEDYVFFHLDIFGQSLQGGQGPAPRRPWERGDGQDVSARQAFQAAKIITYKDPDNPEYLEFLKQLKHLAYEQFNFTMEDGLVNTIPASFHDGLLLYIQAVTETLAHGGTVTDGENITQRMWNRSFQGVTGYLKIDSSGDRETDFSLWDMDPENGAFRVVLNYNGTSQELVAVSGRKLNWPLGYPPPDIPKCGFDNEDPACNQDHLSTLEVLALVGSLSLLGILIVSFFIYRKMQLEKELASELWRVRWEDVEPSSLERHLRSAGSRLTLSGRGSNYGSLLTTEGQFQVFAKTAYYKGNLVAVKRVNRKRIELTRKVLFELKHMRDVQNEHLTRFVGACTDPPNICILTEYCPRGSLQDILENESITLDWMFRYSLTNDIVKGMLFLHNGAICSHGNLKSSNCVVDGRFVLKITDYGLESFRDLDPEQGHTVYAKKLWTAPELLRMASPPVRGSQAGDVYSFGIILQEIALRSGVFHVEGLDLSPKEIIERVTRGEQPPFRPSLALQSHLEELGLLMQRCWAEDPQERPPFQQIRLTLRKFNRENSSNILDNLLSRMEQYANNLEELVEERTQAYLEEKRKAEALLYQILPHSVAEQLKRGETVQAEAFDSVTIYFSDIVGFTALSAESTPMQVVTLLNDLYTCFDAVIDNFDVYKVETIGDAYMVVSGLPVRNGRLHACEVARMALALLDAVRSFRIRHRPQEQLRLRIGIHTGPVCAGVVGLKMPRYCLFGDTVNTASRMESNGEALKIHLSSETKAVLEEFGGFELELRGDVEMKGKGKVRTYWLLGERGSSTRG

[7] = molecular target: T4, human NPR1 expressed on CHO-K1 cells; experiment: cell-based or functional assay; remark: listed apart in the source

T1 sequence (P18910 29-469, one chain of several): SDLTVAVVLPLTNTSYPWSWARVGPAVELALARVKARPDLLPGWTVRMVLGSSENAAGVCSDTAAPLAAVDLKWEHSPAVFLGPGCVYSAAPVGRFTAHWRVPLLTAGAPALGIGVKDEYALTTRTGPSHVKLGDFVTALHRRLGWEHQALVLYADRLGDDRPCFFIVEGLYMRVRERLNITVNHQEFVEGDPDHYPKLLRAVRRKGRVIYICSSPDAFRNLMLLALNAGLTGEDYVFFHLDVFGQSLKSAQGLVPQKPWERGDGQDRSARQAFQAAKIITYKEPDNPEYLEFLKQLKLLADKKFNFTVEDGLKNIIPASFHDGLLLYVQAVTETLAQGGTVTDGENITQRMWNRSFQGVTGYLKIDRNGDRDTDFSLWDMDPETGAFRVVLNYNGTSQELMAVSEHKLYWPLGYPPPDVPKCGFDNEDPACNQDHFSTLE

Binder | EC50 (read off the curve) (rat NPR1-ANP complex [1]) [nM] | cGMP conc [nM] at 1 uM FabCys, +0.075 nM ANP [6] [nM] | cGMP conc [nM] at 1 uM FabCys, without ANP [6] [nM] | further results
XX04 IgG (antibody, V domains shown, also called XX04_LALA) VH: QVQLLESGGGLVQPGGSLRLSCAASGFTFSSYWMNWVRQAPGKGLEWVSAISSDGSYTYYADSVKGRFTISRDNSKNTLYLQMNSLRAEDTAVYYCARDRYSMIYSYGAGAFDYWGQGTLVTVSS VL: DIQMTQSPSSLSASVGDRVTITCRASQGISSYLAWYQQKPGKAPKLLIYTASTLQSGVPSRFSGSGSGTDFTLTISSLQPEDFATYYCQQEWVKPRTFGQGTKVEIKR | ~0.2 |  |  | 
YY04 IgG (YY04_LALA) (antibody, V domains shown) VH: EVQLVESGGGLVKPGGSLRLSCAASGFTFSNYWISWVRQAPGKGLEWVGRIKSKTYGGTTDYAEPVKGRFTISRDDSKNTLYLQMNSLKTEDTAVYYCAREKYSIRARGHGDYGFDVWGQGTLVTVSS VL: DIQMTQSPSSLSASVGDRVTITCRASQGISNYLAWYQQKPGKVPKLLIYAASTLQSGVPSRFSGSGSGTDFTLTISSLQPEDVATYYCQQGYHAPFTFGQGTKVEIKR |  |  |  | EC50 (read off the curve) (human NPR1-ANP complex [2]): ~0.3 nM; flow cytometry S/BG [3]: 33 S/BG; ELISA IgG binding at 1 uM IgG (unit not given) (rat NPR1-ANP complex [4]): 54; ELISA IgG binding at 1 uM IgG (unit not given) (human NPR1-ANP complex [5]): 60
XX03 IgG (antibody, V domains shown, also called XX03_LALA) VH: EVQLLESGGGLVQPGGSLRLSCAASGFTFSSYWMNWVRQAPGKGLEWVSVIESKGNYIFYADSVKGRFTISRDNSKNTLYLQMNSLRAEDTAVYYCARDRYSMIYSYGAGAFDYWGQGTLVTVSS VL: DIQMTQSPSSLSASVGDRVTITCRASQGISSYLAWYQQKPGKAPKLLIYTASTLQSGVPSRFSGSGSGTDFTLTISSLQPEDFATYYCMQSYEKPRTFGQGTKVEIKR | ~0.2 |  |  | 
YY07 FabCys (Fab, V domains shown) VH: EVQLVQSGAEVKKPGESLKISCKGSGYSFTSYWISWVRQMPGKGLEWMGIIYPGTSYTRYSPSFQGQVTISADKSISTAYLQWSSLKASDTAMYYCARGSLPGLLGFDHWGQGTLVTVSS VL: QSVLTQPPSVSGAPGQRVTISCTGSSSNIGAGYDVHWYQQLPGTAPKLLIYGNSNRPNGVPDRFSGSKSGTSASLAITGLQAEDEADYYCQSYDSPTSSSVFGGGTKLTVL |  | 88 | 77 | 
YY05 FabCys (Fab, V domains shown) VH: EVQLVQSGAEVKKPGESLKISCKGSGYSFTSYWISWVRQMPGKGLEWMGIIYPGTSYTRYSPSFQGQVTISADKSISTAYLQWSSLKASDTAMYYCARGAVAGQLGFDHWGQGTLVTVSS VL: QSVLTQPPSVSGAPGQRVTISCTGSSSNIGAGYDVHWYQQLPGTAPKLLIYGNSNRPSGVPDRFSGSKSGTSASLAITGLQAEDEADYYCQSYYTSSHGPVFGGGTKLTVL |  | 227 | 207 | 
WW01 FabCys (Fab, V domains shown) VH: QVQLLESGGGLVQPGGSLRLSCAASGFTFNTHYIHWVRQAPGKGLEWVSSISGSGSNTYYADSVKGRFTISRDNSKNTLYLQMNSLRAEDTAVYYCARERGYVYYHMFDPWGQGTLVTVSS VL: DIVLTQSPATLSLSPGERATLSCRASQSITRNYLAWYQQKPGQAPRLLIYGASSRATGIPARFSGSGSGTDFTLTISSLEPEDFAVYYCQQHSMYPRTFGQGTKVEIK |  |  |  | cGMP conc [nM] at 2 uM FabCys, +0.075 nM ANP [7]: 121 nM; cGMP conc [nM] at 2 uM FabCys, without ANP [7]: 30 nM

Source: patent publication US20200392225A1 (Novartis, published 2020)
